According to the supplement of paper PMC9112550, “Optimization of the antimicrobial peptide Bac7 by deep mutational scanning” (BMC Biology, 2022):

system: Escherichia coli TOP10; assay: shrunken log2 fold change of peptide-encoding DNA abundance (4.5 h post-induction vs induction); higher = less antimicrobial activity (less host growth inhibition); conditions: time post-induction: 4.5 h; library: site-saturation at positions 5, 18, 19, 20
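Further: peptides expressed intracellularly from a pBAD plasmid library in pooled LB shake-flask culture, induced with 0.3% L-arabinose, DNA abundance read by NGS, three biological replicates, DESeq2 with apeglm shrinkage.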

Sequence | shrunken log2 fold change
RRIRGRPPRLPRPRPRPTHTPRP | 0.862
RRIRGRPPRLPRPRPRPTHWPRP | 0.629
RRIRGRPPRLPRPRPRPTIDPRP | 0.214
RRIRGRPPRLPRPRPRPTIMPRP | 0.365
RRIRGRPPRLPRPRPRPTIQPRP | 0.54
RRIRGRPPRLPRPRPRPTKQPRP | 0.169
RRIRGRPPRLPRPRPRPTKYPRP | 0.189
RRIRGRPPRLPRPRPRPTLDPRP | 0.93
RRIRGRPPRLPRPRPRPTLGPRP | 0.936
RRIRGRPPRLPRPRPRPTLQPRP | 0.779
RRIRGRPPRLPRPRPRPTMIPRP | 0.0786
RRIRGRPPRLPRPRPRPTMQPRP | 0.907
RRIRGRPPRLPRPRPRPTNLPRP | -0.0172
RRIRGRPPRLPRPRPRPTPVPRP | 1.07
RRIRGRPPRLPRPRPRPTQAPRP | 1.37
RRIRGRPPRLPRPRPRPTQGPRP | 1.14
RRIRGRPPRLPRPRPRPTRKPRP | 1.12
RRIRGRPPRLPRPRPRPTRMPRP | 0.571
RRIRGRPPRLPRPRPRPTSFPRP | 0.449
RRIRGRPPRLPRPRPRPTTIPRP | 0.623
RRIRGRPPRLPRPRPRPTVEPRP | 1.27
RRIRGRPPRLPRPRPRPTVLPRP | 0.564
RRIRGRPPRLPRPRPRPTWCPRP | 0.521
RRIRGRPPRLPRPRPRPTWRPRP | 0.673
RRIRGRPPRLPRPRPRPVAAPRP | 1.73

Sequence | shrunken log2 fold change
RRIRGRPPRLPRPRPRPVAIPRP | 0.949
RRIRGRPPRLPRPRPRPVATPRP | 2.32
RRIRGRPPRLPRPRPRPVCGPRP | 0.866
RRIRGRPPRLPRPRPRPVCHPRP | 0.54
RRIRGRPPRLPRPRPRPVDAPRP | 0.395
RRIRGRPPRLPRPRPRPVDGPRP | 0.587
RRIRGRPPRLPRPRPRPVDMPRP | 0.255
RRIRGRPPRLPRPRPRPVEKPRP | 0.198
RRIRGRPPRLPRPRPRPVESPRP | 0.00705
RRIRGRPPRLPRPRPRPVFFPRP | 0.888
RRIRGRPPRLPRPRPRPVFHPRP | 0.0913
RRIRGRPPRLPRPRPRPVGKPRP | 0.646
RRIRGRPPRLPRPRPRPVGLPRP | 0.954
RRIRGRPPRLPRPRPRPVGTPRP | 0.304
RRIRGRPPRLPRPRPRPVKVPRP | 0.425
RRIRGRPPRLPRPRPRPVKWPRP | 0.47
RRIRGRPPRLPRPRPRPVMSPRP | 0.401
RRIRGRPPRLPRPRPRPVNGPRP | -0.0658
RRIRGRPPRLPRPRPRPVPNPRP | 0.581
RRIRGRPPRLPRPRPRPVSTPRP | 0.691
RRIRGRPPRLPRPRPRPVVMPRP | 0.237
RRIRGRPPRLPRPRPRPVVQPRP | 0.94
RRIRGRPPRLPRPRPRPVWSPRP | 0.179
RRIRGRPPRLPRPRPRPWCMPRP | 0.13
RRIRGRPPRLPRPRPRPWDGPRP | 0.486

Sequence | shrunken log2 fold change
RRIRGRPPRLPRPRPRPWGNPRP | 0.0898
RRIRGRPPRLPRPRPRPWIIPRP | -0.121
RRIRGRPPRLPRPRPRPWIMPRP | -0.209
RRIRGRPPRLPRPRPRPWMLPRP | 0.0888
RRIRGRPPRLPRPRPRPWNFPRP | -0.289
RRIRGRPPRLPRPRPRPWNPPRP | -0.448
RRIRGRPPRLPRPRPRPWNTPRP | 0.111
RRIRGRPPRLPRPRPRPWQRPRP | 0.0817
RRIRGRPPRLPRPRPRPWQVPRP | -0.00145
RRIRGRPPRLPRPRPRPWTFPRP | -0.00633
RRIRGRPPRLPRPRPRPWTIPRP | 0.00608
RRIRGRPPRLPRPRPRPWVIPRP | -0.257
RRIRGRPPRLPRPRPRPWWNPRP | -0.148
RRIRGRPPRLPRPRPRPWYKPRP | -0.015
RRIRGRPPRLPRPRPRPWYMPRP | 0.0753
RRIRGRPPRLPRPRPRPYAQPRP | 0.104
RRIRGRPPRLPRPRPRPYDFPRP | -0.0968
RRIRGRPPRLPRPRPRPYEAPRP | 0.045
RRIRGRPPRLPRPRPRPYEWPRP | -0.027
RRIRGRPPRLPRPRPRPYFEPRP | -0.123
RRIRGRPPRLPRPRPRPYGAPRP | -0.00762
RRIRGRPPRLPRPRPRPYGMPRP | 0.036
RRIRGRPPRLPRPRPRPYLGPRP | 0.167
RRIRGRPPRLPRPRPRPYMSPRP | 0.0366
RRIRGRPPRLPRPRPRPYMVPRP | -0.296

Sequence | shrunken log2 fold change
RRIRGRPPRLPRPRPRPYNGPRP | -0.0131
RRIRGRPPRLPRPRPRPYNTPRP | 0.328
RRIRGRPPRLPRPRPRPYPKPRP | 0.161
RRIRGRPPRLPRPRPRPYPTPRP | 0.0422
RRIRGRPPRLPRPRPRPYRLPRP | -0.233
RRIRGRPPRLPRPRPRPYSQPRP | -0.621
RRIRGRPPRLPRPRPRPYTKPRP | -0.216
RRIRGRPPRLPRPRPRPYTLPRP | -0.616
RRIRGRPPRLPRPRPRPYTQPRP | -0.0862
RRIRGRPPRLPRPRPRPYTTPRP | -0.083
RRIRGRPPRLPRPRPRPYVEPRP | -0.00776
RRIRHRPPRLPRPRPRPAATPRP | 0.292
RRIRHRPPRLPRPRPRPACEPRP | 0.0343
RRIRHRPPRLPRPRPRPAFRPRP | 0.0888
RRIRHRPPRLPRPRPRPAGHPRP | -0.0991
RRIRHRPPRLPRPRPRPAHAPRP | -0.0771
RRIRHRPPRLPRPRPRPAHWPRP | -0.179
RRIRHRPPRLPRPRPRPAINPRP | -0.221
RRIRHRPPRLPRPRPRPAIPPRP | -0.112
RRIRHRPPRLPRPRPRPAIVPRP | -0.167
RRIRHRPPRLPRPRPRPAKKPRP | 0.0694
RRIRHRPPRLPRPRPRPAKVPRP | 0.00133
RRIRHRPPRLPRPRPRPAPMPRP | 0.164
RRIRHRPPRLPRPRPRPAPSPRP | 0.709
RRIRHRPPRLPRPRPRPAQDPRP | 0.0349

Sequence | shrunken log2 fold change
RRIRHRPPRLPRPRPRPARRPRP | 0.143
RRIRHRPPRLPRPRPRPASTPRP | -0.357
RRIRHRPPRLPRPRPRPAVHPRP | 0.0645
RRIRHRPPRLPRPRPRPAYRPRP | -0.00502
RRIRHRPPRLPRPRPRPCCPPRP | -0.243
RRIRHRPPRLPRPRPRPCDLPRP | -0.502
RRIRHRPPRLPRPRPRPCENPRP | -0.0381
RRIRHRPPRLPRPRPRPCEPPRP | 0.195
RRIRHRPPRLPRPRPRPCFAPRP | 0.0434
RRIRHRPPRLPRPRPRPCFDPRP | -0.00612
RRIRHRPPRLPRPRPRPCFGPRP | 0.104
RRIRHRPPRLPRPRPRPCGMPRP | -0.0838
RRIRHRPPRLPRPRPRPCHDPRP | 0.0948
RRIRHRPPRLPRPRPRPCHEPRP | -0.0201
RRIRHRPPRLPRPRPRPCMGPRP | -0.194
RRIRHRPPRLPRPRPRPCMLPRP | -0.151
RRIRHRPPRLPRPRPRPCNYPRP | -0.084
RRIRHRPPRLPRPRPRPCTSPRP | -0.0185
RRIRHRPPRLPRPRPRPCVPPRP | -0.00981
RRIRHRPPRLPRPRPRPCVRPRP | -0.504
RRIRHRPPRLPRPRPRPCWSPRP | -0.166
RRIRHRPPRLPRPRPRPCYTPRP | 0.0618
RRIRHRPPRLPRPRPRPDDQPRP | -0.0481
RRIRHRPPRLPRPRPRPDFLPRP | -0.0554
RRIRHRPPRLPRPRPRPDFSPRP | -0.0123

Sequence | shrunken log2 fold change
RRIRHRPPRLPRPRPRPDGDPRP | 0.0106
RRIRHRPPRLPRPRPRPDGGPRP | -0.137
RRIRHRPPRLPRPRPRPDGRPRP | 0.172
RRIRHRPPRLPRPRPRPDGVPRP | 0.0513
RRIRHRPPRLPRPRPRPDHDPRP | 0.0111
RRIRHRPPRLPRPRPRPDIDPRP | -0.235
RRIRHRPPRLPRPRPRPDMKPRP | -0.0644
RRIRHRPPRLPRPRPRPDMNPRP | -0.178
RRIRHRPPRLPRPRPRPDNMPRP | 3.69
RRIRHRPPRLPRPRPRPDNPPRP | -0.0868
RRIRHRPPRLPRPRPRPDPGPRP | -0.199
RRIRHRPPRLPRPRPRPDQWPRP | -0.108
RRIRHRPPRLPRPRPRPDRIPRP | -0.495
RRIRHRPPRLPRPRPRPDSEPRP | -0.0112
RRIRHRPPRLPRPRPRPDSFPRP | -0.477
RRIRHRPPRLPRPRPRPDVWPRP | 0.15
RRIRHRPPRLPRPRPRPDWIPRP | -0.111
RRIRHRPPRLPRPRPRPDWMPRP | -0.222
RRIRHRPPRLPRPRPRPDWSPRP | 0.00911
RRIRHRPPRLPRPRPRPDYYPRP | -0.622
RRIRHRPPRLPRPRPRPECSPRP | -0.0101
RRIRHRPPRLPRPRPRPEEIPRP | 0.0207
RRIRHRPPRLPRPRPRPEETPRP | -0.00605
RRIRHRPPRLPRPRPRPEFAPRP | 0.0409
RRIRHRPPRLPRPRPRPEFCPRP | -0.0591
